Laboratory results reported in article PMC7911427, “Interactions of Bacillus subtilis Basement Spore Coat Layer Proteins” (Microorganisms, 2021).

T1: SpoIVA, adenylate cyclase T18/T25 hybrid (Bacillus subtilis, UniProt P35149 1-492)
T1 construct: SpoIVA, basement layer coat morphogenetic protein (ATPase) of Bacillus subtilis; gene amplified from genomic DNA; also called T25-SpoIVA; T18-SpoIVA; source: bacterial two-hybrid fusion, E. coli BTH101; not shown: T18 or T25 domain of adenylate cyclase, N-terminal or C-terminal (by the plasmid combination), kept
T1 sequence (looked up): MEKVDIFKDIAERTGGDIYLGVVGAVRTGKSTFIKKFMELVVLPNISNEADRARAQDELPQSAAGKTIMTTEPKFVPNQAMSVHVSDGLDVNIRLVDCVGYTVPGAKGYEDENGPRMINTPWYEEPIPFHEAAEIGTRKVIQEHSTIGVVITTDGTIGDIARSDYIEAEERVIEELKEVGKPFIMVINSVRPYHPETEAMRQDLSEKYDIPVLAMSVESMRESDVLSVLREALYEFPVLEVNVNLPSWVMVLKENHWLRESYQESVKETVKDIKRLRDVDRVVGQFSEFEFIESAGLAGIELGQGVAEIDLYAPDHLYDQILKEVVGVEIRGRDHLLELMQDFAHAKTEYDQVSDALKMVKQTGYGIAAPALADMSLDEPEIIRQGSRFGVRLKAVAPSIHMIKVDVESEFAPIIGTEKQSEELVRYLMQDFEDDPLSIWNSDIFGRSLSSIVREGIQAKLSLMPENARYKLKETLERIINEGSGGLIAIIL

B1: YncD (spore alanine racemase), adenylate cyclase T18/T25 hybrid (natural protein, Bacillus subtilis, UniProt P94494 1-394, looked up)
chain: MIKLCREVWIEVNLDAVKKNLRAIRRHIPHKSKIMAVVKANGYGHGSIEVARHALEHGASELAVASVEEGIVLRKAGITAPILVLGFTSLSCVKKSAAWNITLSAFQVDWMKEANEILEKEASANRLAIHINVDTGMGRLGVRTKEELLEVVKALKASKFLRWTGIFTHFSTADEPDTTLTKLQHEKFISFLSFLKKQGIELPTVHMCNTAAAIAFPEFSADMIRLGIGLYGLYPSAYIKQLNLVKLEPALSLKARIAYVKTMRTEPRTVSYGATYIAEPNEVIATLPIGYADGYSRALSNRGFVLHRGKRVPVAGRVTMDMIMVSLGENGEGKQGDEVVIYGKQKGAEISVDEVAEMLNTINYEVVSTLSRRIPRFYIRDGEIFKVSTPVLYV
notes: YncD, spore alanine racemase of Bacillus subtilis; gene amplified from genomic DNA of strain PY79; Cloned into pUT18, pUT18C, pKT25 and pKNT25; also called T18-YncD; YncD-T18; source: bacterial two-hybrid fusion, E. coli BTH101; not shown: T18 or T25 domain of adenylate cyclase, N-terminal or C-terminal (by the plasmid combination), kept
B2: YheD, adenylate cyclase T18/T25 hybrid (natural protein, Bacillus subtilis, UniProt O07545 1-453, looked up)
chain: MNPKRFLIGIDKTSENTLFLPSSLKQDGLLHAAFGTKVVRCHVAYRRHLEQTVLLSENLFHELLLPHRSRADILIHDHTVHIGPLVGIFTAGFTVSLERPFKDRSLFFSKLVTLHEQAGGYCFVFGAHQINWEEGTIEGLLYRENGWEKKIVPLPNVVYDRLPNRKIEDSLLLQHTKKRLIDEYQIPWFNKTFFNKWNVHQLLEKDPRTAPFLPRSELTPSVELIDELCGAYKKVYIKPANGALGTGIYQLTRTDGGLTVKHTNDAKTFTSIDYSDAASFLAEFQKHHNPSDFLIQQGVDLIEFQGKPADFRVHTNKNRKGKWTVTAIAVKISGKNSITTHLSNGGTVKTLAEVYDDPAERVEVIKKLSAAALTASHVLHDHIEGFIGEIGFDFGIDQNGKVWMFEANSRPGRSIFSHPNLHHVDSLTKRRSFEYASYLSEKAITSPEALWPS
notes: YheD, spore coat protein of unknown function of Bacillus subtilis; gene amplified from genomic DNA; also called T25–YheD; YheD–T18; source: bacterial two-hybrid fusion, E. coli BTH101; not shown: T18 or T25 domain of adenylate cyclase, N-terminal or C-terminal (by the plasmid combination), kept
B3: YhaX, adenylate cyclase T18/T25 hybrid (natural protein, Bacillus subtilis, UniProt O07539 1-288, looked up)
chain: MSKQLLALNIDGALLRSNGKIHQATKDAIEYVKKKGIYVTLVTNRHFRSAQKIAKSLKLDAKLITHSGAYIAEKIDAPFFEKRISDDHTFNIVQVLESYQCNIRLLHEKYSIGNKKKVNSNLLGKALIHPSDPIFYPVQFVESLSDLLMDEPVSAPVIEVYTEHDIQHDITETITKAFPAVDVIRVNDEKLNIVPKGVSKEAGLALVASELGLSMDDVVAIGHQYDDLPMIELAGLGVAMGNAVPEIKRKADWVTRSNDEQGVAYMMKEYFRMQQRKGFLDKFHMKRV
notes: YhaX, spore coat protein of unknown function of Bacillus subtilis; gene amplified from genomic DNA; also called T25–YhaX; YhaX–T18; source: bacterial two-hybrid fusion, E. coli BTH101; not shown: T18 or T25 domain of adenylate cyclase, N-terminal or C-terminal (by the plasmid combination), kept
B4: SpoVD, adenylate cyclase T18/T25 hybrid (natural protein, Bacillus subtilis, UniProt Q03524 1-646, looked up)
chain: MRVSNVTVRKRLLFVLLFGVIVFLIIDTRLGYVQFVMGEKLTSLAKDSWSRNLPFEPERGEILDRNGVKLATNKSAPTVFVVPRQVQNPMKTSKQLAAVLNMSEEKVYKHVTKKASIEKITPEGRKISNEKAKEIKALDLKGVYVAEDSIRHYPFGSFLSHVLGFAGIDNQGLLGLEAYYDDDLKGEKGSVKFYTDAKGKKMPDEADDYTPPKDGLDMKLTVDSKVQTIMERELDNAEAKYHPDGMIAVAMNPKNGEILGMSSRPDFDPADYQSVDPSVYNRNLPVWSTYEPGSTFKIITLAAALEEQKVNLKRDQFYDKGHAEVDGARLRCWKRGGHGLQTYLEVVQNSCNPGFVELGERLGKEKLFKYIKDFGFGQKTGIDLQGEGTGILFPLERVGPVEQATTAFGQGVSVTPIQQVAAVSAAVNGGTLYTPYIAKEWIDPVTKKTVKKQSPIAKKQVISEETSKQIRYALESVVAEGTGRNAFVEGYRVGGKTGTAQKVKDGKYLENNHIVSFIGFAPADDPSLVVYVAVDNPKGTIQFGGTVAAPIVGNIMRDSLPELGVKPRKNQIEKKYQWNDTKTIEVPNVVGMSVSDLESLLVNLNVDASGKGSKIVKQSPAAGTKVKEGSKIRVYLTEEDEKEAAD
notes: gene amplified from genomic DNA; the positive combinations are N-terminal fusions; also called T18–SpoVD; T25–SpoVD; source: bacterial two-hybrid fusion, E. coli BTH101; not shown: T18 or T25 domain of adenylate cyclase, N-terminal, kept
B5: CotE, adenylate cyclase T18/T25 hybrid (natural protein, Bacillus subtilis, UniProt P14016 1-181, looked up)
chain: MSEYREIITKAVVAKGRKFTQCTNTISPEKKPSSILGGWIINHKYDAEKIGKTVEIEGYYDINVWYSYADNTKTEVVTERVKYVDVIKLRYRDNNYLDDEHEVIAKVLQQPNCLEVTISPNGNKIVVQAEREFLAEVVGETKVVVEVNPDWEEDDEEDWEDELDEELEDINPEFLVGDPEE
notes: CotE, spore coat morphogenetic protein of Bacillus subtilis; gene amplified from genomic DNA; also called CotE-T25; T25-CotE; source: bacterial two-hybrid fusion, E. coli BTH101; not shown: T18 or T25 domain of adenylate cyclase, N-terminal or C-terminal (by the plasmid combination), kept
B6: SpoVE, adenylate cyclase T18/T25 hybrid (natural protein, Bacillus subtilis, UniProt P07373 1-366, looked up)
chain: MTTKKTSPDLLLVIITLLLLTIGLIMVYSASAVWADYKFDDSFFFAKRQLLFAGIGVIAMFFIMNVDYWTWRTWSKLLMVICFFLLVLVLIPGVGMVRNGSRSWIGVGAFSIQPSEFMKLAMIAFLAKFLSEKQKNITSFRRGFVPALGIVFSAFLIIMCQPDLGTGTVMVGTCIVMIFVAGARIAHFVFLGLIGLSGFVGLVLSAPYRIKRITSYLNPWEDPLGSGFQIIQSLYAVGPGGLFGMGLGQSRQKFFYLPEPQTDFIFAILSEELGFIGGTLILLLFSVLLWRGIRIALGAPDLYGSFVAVGIISMIAIQVMINIGVVTGLIPVTGITLPFLSYGGSSLTLMLMAVGVLLNVSRYSRY
notes: SpoVE, SEDS family membrane protein essential for cortex synthesis, Bacillus subtilis; gene amplified from genomic DNA; also called SpoVE–T18; T25–SpoVE; source: bacterial two-hybrid fusion, E. coli BTH101; not shown: T18 or T25 domain of adenylate cyclase, N-terminal or C-terminal (by the plasmid combination), kept

Legend:
Test in all cases: two-hybrid; bacterial two hybrid system (BACTH) based on adenylate cyclase T18/T25 fusions in E. coli BTH101; X-gal/IPTG indicator plates at 30 °C for 48 h; beta-galactosidase activity with ONPG in Miller units (Mu)
[1] = molecular target: B5; conditions: partners not purified
[2] = molecular target: T1, SpoIVA, adenylate cyclase T18/T25 hybrid; conditions: partners not purified
[3] = molecular target: the molecule itself
[4] = molecular target: T2, SpoVM, adenylate cyclase T18/T25 hybrid (Bacillus subtilis, UniProt P37817 1-26); conditions: partners not purified
T2 construct: SpoVM, small 26-amino-acid-long basement layer coat morphogenetic peptide of Bacillus subtilis; gene amplified from genomic DNA; also called T18–SpoVM; SpoVM–T18; source: bacterial two-hybrid fusion, E. coli BTH101; not shown: T18 or T25 domain of adenylate cyclase, N-terminal or C-terminal (by the plasmid combination), kept
T2 sequence (P37817 whole entry, the tested form may be a part): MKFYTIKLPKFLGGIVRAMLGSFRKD

Binder | beta-galactosidase activity (Miller units) [3] | also measured
B1 | 220 Mu | beta-galactosidase activity (Miller units) [1]: 600 Mu; beta-galactosidase activity (Miller units) [2]: 160 Mu
B2 | 1720 Mu | 
B3 | 704 Mu | 
B4 | 240 Mu | beta-galactosidase activity (Miller units) [4]: 420 Mu
B5 | 360 Mu | 
B6 | ≤ 360 Mu | beta-galactosidase activity, fold of the negative control [4]: ~2 fold
